One may read the stoichiometry N as a count of units in the complex or per binding partner.

This series concerns the molecule itself. As to the kind of experiment: native gel or EMSA.

Several values for one entry are separate records, joined by “and”; a condition that tells them apart may be missing. Equal entries are not always repeated.

B1: AtxA-His (natural protein)
chain: MLTPISIEKEHIRLINLLHFINEQNRWFTIKELSDYLQVADKTVRKYLKLLEDEIPPSWNLLVQKGKGIYLKKPLNESLSFVESKILRKSLNLQICEELVFKKNSMQSLAQKLHLQVGALYPIINQINYDIQSSHLNIKKKPLEISGREQDVRVFMLRLYCNIPNDYWPFPYINKQNITDLINKMEKILNVQMYTYSKHKLCVLFAITISRLLSGNTIDNVSGLILVNKNDDHYKTVASITSELQNSFGVTLHETEISFLALALLLSLGNSITTDSNKTLTSYKKTIMPLAKEITKGIEHKLQLGINYDESFLTYVVLIIKKALDKNFIQYYNYNIKFIRHIKQRHPNTFNTIQECISNLNYTVYSHFDCYEISLLTMHFETQRMLFKNNPKKIYVYTSQGCIHREYISALLEKRYNGLIKIVRNTIINLTNESLQDMEIDIIISNVNLPIKNIPIVQISEFPTERDFHEIKKII
In the case of B1, the “stoichiometry N” value was 2 and 4.

(Values after paper PMC3211139 (Molecular microbiology, 2011).)
